Assay [1] has as its target His-tagged RhpA (pET28a+) (Helicobacter pylori) (UniProt O25029). The experiment in a line: AUC; sedimentation velocity of His-tagged purified proteins, alone or mixed; 25 mM Tris-HCl pH 8, 300 mM NaCl, 0.5 mM TCEP; 20 °C; 230 nm; c(s) analysis with Sedfit.
The target in assay [2] is His-tagged RNase J K649A (pET28a+) (Helicobacter pylori) (UniProt P56185).
For assay [3], the target named is RhpA with C-terminal Strep-tag, from pExp-MBP (Helicobacter pylori) (UniProt O25029). In words: mass photometry; Refeyn TwoMP; 20 mM sodium phosphate pH 7.2, 300 mM NaCl; final concentration of 50 nM.
Assay [4] concerns the target His-tagged RNase J K649Q (pET28a+) (Helicobacter pylori) (UniProt P56185). In words: AUC; sedimentation velocity of His-tagged purified proteins, alone or mixed; 25 mM Tris-HCl pH 8, 300 mM NaCl, 0.5 mM TCEP; 20 °C; 230 nm; c(s) analysis with Sedfit.
Assay [5] deals with His-tagged RNase J K649A (pET28a+) (Helicobacter pylori) (UniProt P56185). The description is as above.
For assay [6], the target named is full-length RNase J (H. pylori strain B128) with C-terminal 8xHis-tag, from pExp-xMBP-CHis (Helicobacter pylori strain B128) (UniProt P56185). The experiment in a line: cryo-EM structure; mixture of RNase J (1 µM) and RhpA (2 µM) in 20 mM sodium phosphate pH 7.2, 500 mM NaCl, 0.5 mM TCEP; Quantifoil R1.2/1.3 grids, 200 kV Talos Arctica.
Assay [7] has the same target. In words: mass photometry; Refeyn TwoMP; 20 mM sodium phosphate pH 7.2, 300 mM NaCl; final concentration of 50 nM.
For assay [8], the target named is His-tagged RNase J wild type (pET28a+) (Helicobacter pylori) (UniProt P56185). In words: AUC; sedimentation velocity of His-tagged purified proteins, alone or mixed; 25 mM Tris-HCl pH 8, 300 mM NaCl, 0.5 mM TCEP; 20 °C; 230 nm; c(s) analysis with Sedfit.
The target of assay [9] is His-tagged RNase J K649R (pET28a+) (Helicobacter pylori) (UniProt P56185). Described as above.

Where “and” joins values, the source holds several entries; their conditions need not be identical. Equal entries are not always repeated.

In turn, “His-tagged RhpA (pET28a+) (from UniProt O25029 1-492) (enzyme)” registered a stoichiometry N in assay [1] of 2. Also, in assay [2], the half-life of the structured RNA substrate with the complex between RhpA and the RNase J K649A variant (value of the text, differs from the table) was found to be 6.7 min.

Substance “RhpA with C-terminal Strep-tag, from pExp-MBP (from UniProt O25029 1-492) (enzyme)” showed a stoichiometry N in assay [3] of 2.

For “His-tagged RNase J K649Q (pET28a+) (from UniProt P56185 1-689) (enzyme)”, the stoichiometry N in assay [4] was 4 and 2.

Substance “His-tagged RNase J K649A (pET28a+) (from UniProt P56185 1-689) (enzyme)” yielded a stoichiometry N in [5] of 4.

On to “full-length RNase J (H. pylori strain B128) with C-terminal 8xHis-tag, from pExp-xMBP-CHis (from UniProt P56185 1-689) (enzyme)”, for which the stoichiometry N in [6] and in assay [7] was 4 in each case.

With “His-tagged RNase J wild type (pET28a+) (from UniProt P56185 1-689) (enzyme)”, the stoichiometry N in assay [8] was 2 and 4.

For the substance “His-tagged RNase J K649R (pET28a+) (from UniProt P56185 1-689) (enzyme)”, the stoichiometry N in assay [9] was 4 and 2.

For the origin of these results see article PMC10700544.
